Test system: C81 cells
Assay: C81 xenografts in female athymic nude mice
Format: in vivo
Description: FIG. 8A-C. Manipulation of EBP1 expression affects growth of prostate cancer cells in vivo. A. Ectopic expression of EBP1 reduces the growth of androgen independent cells in athymic female mice C81 vector or EBP1 transfected cells were injected subcutaneously into female athymic mice. Tumor development with time is shown (n=10 animals, 20 sites per group). B. Tumor volumes and growth rate. Tumor volumes were calculated as described in “Materials and Methods”. Each point represents the mean±SE (10 mice per group injected at 20 sites). C. Elimination of EBP1 expression enhances growth of androgen dependent LNCaP cells in vivo. A16 lentivirus control or C13 EBP1 shRNA transduced LNCaP cells were injected subcutaneously into female athymic mice. Tumor volumes were calculated as described in “Materials and Methods”. Each point represents the mean±SE (10 mice per group injected at 20 sites). * indicates p 0.04.
Western Blot Analysis. Western blot analysis was performed as previously described (19). The Ebp1 antibody was from Upstate (Lake Placid, N.Y.), the polyclonal antibody to actin from Sigma, the AKT and phospho AKT antibodies from Cell Signaling (Beverly, Mass.) and the AGR2 antibody was previously described (20) Cell Growth Assays Cell growth measurement in complete media was performed as described using a hemocytometer (21). For soft agar growth assays, increasing concentrations of cells (as indicated) were plated in 35 mm Petri dishes in 0.3% agar in complete media and colonies were counted after 10 days of incubation (21). For studies assessing the effect of DHT, HRG or chemotherapeutic agents on cell growth, cells (5×10^3) were plated in 96 well plates in complete media. After a 24-hour attachment period, the medium was replaced with steroid free medium [phenol red free RPMI 1640 and 5% charcoal stripped fetal bovine serum (Sigma)]. After 48 hours of steroid depletion, cells were refed with fresh steroid reduced medium with or without the indicated concentrations of DHT, bicalutamide (Casodex) (10 μM), HRG or the chemotherapeutic drugs at the concentrations indicated. Relative cell growth was determined using a Promega Proliferation Reagent (Promega, Madison Wis.) as per manufacturer's instructions with absorbance being read at […] using a Dynex plate reader. Luciferase Reporter Assays Cells (5×10^4) were plated in 12 well plates in complete media. When cells reached 50-60% confluence, they were transfected using the FuGENE®-6 Reagent (Roche, Indianapolis, Ind.) according to the manufacturer's instructions. Cells were transfected with 0.5 μg of an MMTV-luciferase reporter plasmid and 5 ng of a TK Renilla plasmid (Promega, Madison, Wis.) as an internal control. Complete medium was replaced 24 h after transfection with phenol red free RPMI 1640 with CSS with or without R1881 (10^−8M). Luciferase activity was determined using the Promega Dual luciferase assay kit as described by the manufacturer. In Vivo Studies in Athymic Mice Female nude athymic NCr-nu/nu mice, 4-6 weeks of age, were purchased from the National Cancer Institute (Frederick, Md.). Animals were housed in a pathogen free environment under controlled conditions of light and humidity and received food and water ad libitum. […] Tumors were measured with calipers. Tumor volumes were calculated by the formula width^2×length/2 […]. Mean tumor volume±S.D. were calculated and plotted against time. […] Statistical Analysis Results of growth assays were analyzed using a two-sided Students t-test. […]

B1: EBP1: ErbB3 binding protein (SEQ ID NO: 2), AR corepressor, here ectopically expressed in cancer cells by stable transfection of an expression plasmid (protein, listed as Homo sapiens)
chain: MSGEDEQQEQTIAEDLVVTKYKMGGDIANRVLRSLVEASSSGVSVLSLCEKGDAMIMEETGKIFKKEKEMKKGIAFPTSISVNNCVCHFSPLKSDQDYILKEGDLVKIDLGVHVDGFIANVAHTFVVDVAQGTQVTGRKADVIKAAHLCAEAALRLVKPGNQNTQVTEAWNKVAHSFNCTPIEGMLSHQLKQHVIDGEKTIIQNPTDQQKKDHEKAEFEVHEVYAVDVLVSSGEGKAKDAGQRTTIYKRDPSKQYGLKMKTSRAFFSEVERRFDAMPFTLRAFEDEKKARMGVVECAKHELLQPFNVLYEKEGEFVAQFKFTVLLMPNGPMRITSGPFEPDLYKSEMEVQDAELKALLQSSASRKTQKKKKKKASKTAENATSGETLEENEAGD
modifications: FLAG tag
C81 EBP1 transfectants (vector 25/26), p=0.00001
  sites that developed tumors at the end of both studies: 10/26
C81 EBP1 transfectants (vector controls 24/26)
  inoculation sites with tumors on Day 28 post transplantation: 1/26
C81 EBP1 transfectants s.c. in female nude mice (vector day 8)
  day on which the first tumor was observed: 20 days
C81 EBP1 transfectants, 6 sites per group, Mean+S.E. (vector 998±206), p=0.01
  average tumor volume at the end of the first study: 104±70 mm^3
C81 EBP1 transfectants, 20 sites per group (vector 561±47), p=0.0001, in mm³ (unit assumed)
  average tumor volume, second experiment: 206±54
